Data taken from US20210325403.

Target: T1, caspase-3 substrate CGKRKGDEVDSG
T1 chain: CGKRKGDEVDSG

B1: caspase-3 (protein)
chain: SGISLDNSYKMDYPEMGLCIIINNKNFHKSTGMTSRSGTDVDAANLRETFRNLKYEVRNKNDLTREEIVELMRDVSKEDHSKRSSFVCVLLSHGEEGIIFGTNGPVDLKKITNFFRGDRCRSLTGKPKLFIIQACRGTELDCGIETDSGVDDDMACHKIPVEADFLYAYSTAPGYYSWRNSKDGSWFIQSLCAMLKQYADKLEFMHILTRVNRKVATEFESFSFDATFHAKKQIPCIVSMLTKELYFYH
In the case of B1, the “cleavage of the immobilised substrate, read by SAMDI mass spectrometry” value is reported as “we also observed a peak corresponding to the caspase-3 product at 144 Da lower than the initial substrate mass”.
